The values below come from patent US20030077318A1 (Scripps Research, published 2003).

In the test the target is T1, VSV-7 (Vesicular stomatitis virus).
T1 construct: also called GYVYQGL
In words: competitive RIA against [^125I]VSV-8 on K^bsol, P30 gel filtration, 23° C.

One may read the Kd as the constant that tells how readily two partners part at equilibrium. A lower Kd goes with tighter binding.

B1: soluble H-2K^b (K^bsol), heterodimer of truncated K^b heavy chain and murine β-2 microglobulin, purified empty from Drosophila cells (other)
alpha: GPHSLRYFVTAVSRPGLGEPRYMEVGYVDDTEFVRFDSDAENPRYEPRARWMEQEGPEYWERETQKAKGNEQSFRVDLRTLLGYYNQSKGGSHTIQVISGCEVGSDGRLLRGYQQYAYDGCDYIALNEDLKTWTAADMAALITKHKWEQAGEAERLRAYLEGTCVEWLRRYLKNGNATLLRTDSPKAHVTHHSRPEDKVTLRCWALGFYPADITLTWQLNGEELIQDMELVETRPAGDGTFQKWASVVVPLGKEQYYTCHVYHQGLPEPLTLRW
b2m: IQKTPQIQVYSRHPPENGKPNILNCYVTQFHPPHIEIQMLKNGKKIPKVEMSDMSFSKDWSFYILAHTEFTPTETDTYACRVKHASMAEPKTVYWDRDM
notes: also called H-2K^b Sol; soluble K^b
With B1, binding was put at a Kd of 53 nM. That is a double-digit nanomolar value.
